The values that follow come from patent publication US10143754B2, “Method for peroral delivery of insulin and its analogues for therapeutic usage” (TRANSGENE BIOTEK LIMITED, priority 2011, dated 2018).

For data set [1] the following is noted: acid pH; cited from earlier work.
The subject of data set [2] is Streptozotocin induced diabetic Wistar or Sprague Dawley rats. Put plainly: Modification of blood/serum glucose of diabetic rats. It is filed as in vivo, rat. As to conditions: IV administration, FIG. 1.
For data set [3] the following is noted: rat, in vivo, iv.

On to Insulin Glargine, for which, in data set [1], the solubility entry is “soluble at acid pH”.
For the substance Insulin Lispro, in data set [2], the “duration of hypoglycemic effect” value was “short lived” and the “reduction of blood glucose levels” value is given as “rapid reduction of blood glucose levels”. In addition, the plasma insulin levels result in data set [3] is “increased in accordance with the reduction in serum glucose levels but reduced rapidly”.
